Where “and” joins values, the source holds several entries; their conditions need not be identical. Equal values may be shown once.
Assays:
[1] = target: T1, human IL-13Rα2 Fc (R & D Systems, 614-IR-100) (human, UniProt Q14627 27-343, limits assumed); test: DELFIA epitope competition, no inhibition of biotinylated human IL-4Rα HIS FLAG binding to immobilised IgG
T1 construct: bought protein; not shown: Fc part of the bought fusion
T1 sequence (looked up): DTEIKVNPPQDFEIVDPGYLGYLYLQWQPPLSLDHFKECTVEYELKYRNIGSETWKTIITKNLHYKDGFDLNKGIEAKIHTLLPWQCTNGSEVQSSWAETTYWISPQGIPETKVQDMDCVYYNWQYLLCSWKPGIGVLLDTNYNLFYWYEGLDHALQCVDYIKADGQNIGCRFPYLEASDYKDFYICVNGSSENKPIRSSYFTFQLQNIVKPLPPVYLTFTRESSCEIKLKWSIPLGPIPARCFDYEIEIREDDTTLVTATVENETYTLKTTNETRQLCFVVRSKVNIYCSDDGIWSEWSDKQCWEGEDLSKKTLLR
Description: (§1) Titrations of IL-4R• species including cynomolgus IL-4R• HIS Fc (in house HEK-EBNA derived), human IL-4R• 175V Fc (AstraZeneca), human IL-4R• Fc and murine IL-4R• (both R & D Systems) were tested in each assay to establish the species cross-reactivity of the antibodies. Unbiotinylated human IL-4R• HIS FLAG was used as a positive control. Human and cynomolgus IL-4R• HIS Fc, along with Human IL-4R• 175V Fc, produced overlapping inhibition curves with […] IC₅₀ values. […] Details of the protocol are provided in the Materials and Methods section 4.6.1.
(§2) Purified IgG were adsorbed onto 96-well Maxisorp microtitre plates (Nunc) in PBS at a concentration which gave a significant signal when biotinylated human IL-4R• HIS FLAG was added at approximately its estimated KD for that particular IgG. Excess IgG was washed away with PBS-Tween (0. 1% v/v) and the wells were blocked with PBS-Marvel (3% w/v) for 1 h. […] Unbiotinylated human IL-4R• HIS FLAG was used as a positive control. […] These mixtures were then transferred onto the blocked IgG and allowed to equilibrate for 1.5 h. Unbound antigen was removed by washing with PBS-Tween (0.1% v/v), while the remaining biotinylated human IL-4R• was detected by streptavidin-Europium3+ conjugate (DELFIA• detection, PerkinElmer).

[2] = target: T2, human IL-13Rα1 Fc (R & D Systems, 146-IR-100) (human, UniProt P78552 27-343, limits assumed); test: as above
T2 construct: bought protein; not shown: Fc part of the bought fusion
T2 sequence (looked up): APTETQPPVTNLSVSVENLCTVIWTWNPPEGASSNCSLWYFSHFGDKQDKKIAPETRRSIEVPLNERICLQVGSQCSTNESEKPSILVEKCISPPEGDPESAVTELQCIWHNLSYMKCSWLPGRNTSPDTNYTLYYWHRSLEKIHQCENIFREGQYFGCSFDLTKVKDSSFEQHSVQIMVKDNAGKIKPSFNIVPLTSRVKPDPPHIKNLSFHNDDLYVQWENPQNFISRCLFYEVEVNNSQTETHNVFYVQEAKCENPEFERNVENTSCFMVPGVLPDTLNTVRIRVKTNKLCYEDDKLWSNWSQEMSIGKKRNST
Description: as §1, §2

[3] = target: T3, murine IL4Rα Fc (R & D Systems 530-MR-100) (murine, UniProt P16382 26-233, limits assumed); test: as above
T3 construct: bought protein; not shown: Fc part of the bought fusion
T3 sequence (looked up): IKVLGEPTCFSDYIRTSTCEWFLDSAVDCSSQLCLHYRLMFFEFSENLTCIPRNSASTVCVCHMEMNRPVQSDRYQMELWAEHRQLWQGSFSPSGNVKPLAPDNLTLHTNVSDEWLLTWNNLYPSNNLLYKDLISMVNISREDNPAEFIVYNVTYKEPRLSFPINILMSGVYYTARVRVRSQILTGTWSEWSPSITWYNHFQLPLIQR
Description: as §1, §2

[4] = target: T4, Human common gamma chain (sIL-2Rγ) (R & D Systems 384-RG-050-CF) (human, UniProt P31785 23-254); test: as above
T4 construct: bought protein; also called common gamma chain (IL-2Rγ)
T4 sequence (looked up): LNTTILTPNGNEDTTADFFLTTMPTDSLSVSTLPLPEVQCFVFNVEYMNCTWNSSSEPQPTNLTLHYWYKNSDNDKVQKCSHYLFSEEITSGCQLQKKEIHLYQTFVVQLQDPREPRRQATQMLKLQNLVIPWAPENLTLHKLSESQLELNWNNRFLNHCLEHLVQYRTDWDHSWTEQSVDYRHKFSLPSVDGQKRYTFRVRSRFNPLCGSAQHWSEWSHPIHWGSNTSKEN
Description: as §1, §2

[5] = target: T5, cynomolgus IL-4Rα HIS FLAG (cynomolgus); test: SPR (BIAcore 2000), IgG captured on Protein G', receptor as analyte, 1:1 Langmuir
T5 construct: also called Cyno IL4Rα HIS FLAG; not shown: HIS and FLAG tags and any vector-encoded linker of the cynomolgus HIS FLAG construct
T5 chain: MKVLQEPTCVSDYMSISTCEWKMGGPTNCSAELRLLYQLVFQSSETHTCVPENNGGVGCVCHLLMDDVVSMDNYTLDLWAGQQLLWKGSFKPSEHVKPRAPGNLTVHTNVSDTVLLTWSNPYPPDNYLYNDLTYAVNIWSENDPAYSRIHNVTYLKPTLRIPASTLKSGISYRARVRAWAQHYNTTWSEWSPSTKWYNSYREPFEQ
Description: (§3) In brief, Protein G′ (Sigma Aldrich, P4689) was covalently coupled to the surface of a CM5 sensor chip using standard amine coupling reagents according to manufacturer's instructions (BIAcore). This Protein G′ surface was used to capture a constant amount of purified anti-IL4R• antibodies or isotype control via the Fc domain. Human or cynomolgus IL-4R• HIS FLAG prepared in HBS-EP buffer (BIAcore AB), at a range of concentrations, between 100 nM and 0.2 nM, were passed over the sensor chip surface. […] The resulting sensorgrams were evaluated using BIA evaluation 4.1 software and fitted to 1:1 Langmuir binding model, to provide the relative binding data. The experiments were performed over the course of at least three separate days to calculate an average monovalent affinity.

[6] = target: T6, human IL-4Rα HIS FLAG (in house HEK-EBNA derived) (human, biotinylated where used as the labelled partner in the DELFIA assay); test: as above
T6 construct: also called HuIL-4Rα; Human IL4-Rα/FLAG/HIS tag
T6 chain: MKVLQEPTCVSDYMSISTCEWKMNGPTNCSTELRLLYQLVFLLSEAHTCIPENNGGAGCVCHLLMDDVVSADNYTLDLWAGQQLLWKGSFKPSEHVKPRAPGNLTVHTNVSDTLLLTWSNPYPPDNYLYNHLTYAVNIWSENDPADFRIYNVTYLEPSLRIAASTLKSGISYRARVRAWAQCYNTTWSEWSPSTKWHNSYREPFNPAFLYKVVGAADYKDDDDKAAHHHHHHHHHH
Description: as §3

[7] = target: T5, cynomolgus IL-4Rα HIS FLAG; test: SPR (BIAcore 2000), value in parentheses under the mean, taken as a single determination
Description: as §3

[8] = target: T6, human IL-4Rα HIS FLAG (in house …); test: as above
Description: as §3

B1: Antibody 37GL IgG (antibody, V domains shown)
VH: QVQLVQSGAEVKKPGASVKVSCKASGYAFTSYYMHWVRQAPGQGLEWMGIINPRGGSTSYAQKFQGRVTMTRDTSTSTVYMELSSLRSEDTAVYYCARGKYWMYDWGKGTLVTVSS
VL: QSVLTQPPSVSAAPGQKVTISCSGGGSSIGNSYVSWYQQLPGTAPKLLIYDNNKRPSGIPDRFSGSKSGTSATLGITGLQTGDEADYYCGTWDTSPVWEWPFGTGTKLTVL
notes: germlined IgG; also called Antibody 37 (FGL)
- binding result [1]: no binding
- binding result [2]: no binding
- binding result [3]: no binding
- binding result [4]: no binding
- Kd [5]: 4.41 nM
- koff [5]: 0.00108 s⁻¹
- kon [5]: 244000 M⁻¹ s⁻¹
- Kd [6]: 0.504 nM
- koff [6]: 0.000346 s⁻¹
- kon [6]: 688000 M⁻¹ s⁻¹
- Kd [7]: 4.67 nM and 4.34 nM and 4.41 nM
- Kd [8]: 0.533 nM and 0.531 nM and 0.459 nM
